In publication PMC5554461 one finds fold reduction of the on-rate against YU2.SOSIP.664 data, which are given here for 1 substance.

The target of the assay is soluble 2-domain CD4 (2dCD4). Put plainly: BLI. A general note: In BLI a coated tip is dipped into the sample, and binding shifts an interference pattern.

“YU2(R456K).SOSIP.664 (from UniProt P35961 499-843) (complex)”: the fold reduction of the on-rate against YU2.SOSIP.664 is 2 fold.
